Laboratory results from patent publication US20210002363A1 (PHANES THERAPEUTICS, published 2021).
Where two headings read alike, the source gives them in different places. One block for each binder: values may come before it.

Legend:
[1] = target: T1, Recombinant extracellular domain of human FOLR1 (Novoprotein, Cat#: C784) (human, UniProt P15328 25-233, limits assumed); assay: ELISA on immobilized FOLR1 extracellular domain; O.D. 450 nm
T1 construct: Bought reagent; also called recombinant FOLR1; immobilized FOLR1 extracellular domain
T1 sequence (P15328 25-233 limits assumed): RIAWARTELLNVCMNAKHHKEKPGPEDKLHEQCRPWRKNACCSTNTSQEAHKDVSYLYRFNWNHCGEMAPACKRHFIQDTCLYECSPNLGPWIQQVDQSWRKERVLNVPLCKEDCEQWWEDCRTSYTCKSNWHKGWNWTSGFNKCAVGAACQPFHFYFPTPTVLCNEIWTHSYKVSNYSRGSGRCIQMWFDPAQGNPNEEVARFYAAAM

[2] = target: T2, FOLR1 on SK-OV-3 cells (ATCC HTB-77) (Homo sapiens (Human), UniProt P15328 25-234); assay: FACS on SK-OV-3 cells; MFI
T2 construct: Endogenous FOLR1 of the cell line; also called cells that are known to express FOLR1
T2 sequence (P15328 25-234 limits assumed): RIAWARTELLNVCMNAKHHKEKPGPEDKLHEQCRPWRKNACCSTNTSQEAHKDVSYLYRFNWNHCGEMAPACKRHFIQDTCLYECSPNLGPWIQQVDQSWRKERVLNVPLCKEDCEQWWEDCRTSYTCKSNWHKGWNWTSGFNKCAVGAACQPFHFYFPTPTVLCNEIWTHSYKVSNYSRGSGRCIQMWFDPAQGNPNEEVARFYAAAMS

[3] = target: T1, Recombinant extracellular domain of …; assay: ELISA on immobilized FOLR1 extracellular domain; O.D. 450 nm; remark: listed apart in the source
[4] = target: T2, FOLR1 on SK-OV-3 cells (ATCC HTB-77); assay: FACS on SK-OV-3 cells; MFI; remark: listed apart in the source
[5] = target: T2, FOLR1 on SK-OV-3 cells (ATCC HTB-77); assay: FACS on SK-OV-3 cells; MFI; remark: listed apart in the source
[6] = target: T1, Recombinant extracellular domain of …; assay: ELISA on immobilized FOLR1 extracellular domain; O.D. 450 nm; remark: listed apart in the source
[7] = target: T2, FOLR1 on SK-OV-3 cells (ATCC HTB-77); assay: FACS on SK-OV-3 cells; MFI; remark: listed apart in the source
[8] = target: T1, Recombinant extracellular domain of …; assay: ELISA on immobilized FOLR1 extracellular domain; O.D. 450 nm; remark: listed apart in the source
[9] = target: T2, FOLR1 on SK-OV-3 cells (ATCC HTB-77); assay: FACS on SK-OV-3 cells; MFI; remark: listed apart in the source
[10] = target: T2, FOLR1 on SK-OV-3 cells (ATCC HTB-77); assay: FACS on SK-OV-3 cells; MFI; remark: listed apart in the source
[11] = target: T1, Recombinant extracellular domain of …; assay: ELISA on immobilized FOLR1 extracellular domain; O.D. 450 nm; remark: listed apart in the source
[12] = target: T1, Recombinant extracellular domain of …; assay: as above; remark: listed apart in the source
[13] = target: T1, Recombinant extracellular domain of …; assay: as above; remark: listed apart in the source
[14] = target: T2, FOLR1 on SK-OV-3 cells (ATCC HTB-77); assay: FACS on SK-OV-3 cells; MFI; remark: listed apart in the source

EC50 (read off the curve) [7]: ~3 nM | EC50 (read off the curve) [8]: ~0.3 nM
B5: F10-H1L2 (antibody, V domains shown)
VH: EVQLVQSGAEVKKPGSSVKVSCKASGYAFSSSWMNWVRQAPGQGLEWIGRIYPGDGYTHYNGMFKGRASLTADKSTSTGYMELSSLRSEDTAVFFCTRHGDFPYWYFDVWGRGTLVTVSP
VL: DIQMTQSPSTLSASVGDRVTITCRASENIDSYLAWYQQKPGRAPKLLVYAATNLAVGVPSRFSGSGSGTEYTLTISSLQPDDFATYYCQHHYSTPPTFGQGTKLEIK
notes: also called humanized F10 mAb H1L2

EC50 (read off the curve) [9]: ~3 nM
B6: F10-H2L1 (antibody, V domains shown)
VH: EVQLVQSGAEVKKPGSSVKVSCKASGYAFSSSWMNWVRQAPGQGLEWIGRIYPGDGYTHYNGMFKGRASLTADKSTSTGYMELSSLRSEDTAVFFCTRHGDFPYWYFDVWGRGTLVTVSS
VL: DIQMTQSPSTLSASVGDRVTITCRASENIDSYLAWYQQKPGRAPKLLVYAATNLAVGVPSRFSGSGSGTEYTLTISSLQSDDFATYYCQHHYSTPPTFGQGTKLEIK
notes: also called humanized F10 mAb H2L1

EC50 (read off the curve) [13]: ~0.2 nM | EC50 (read off the curve) [14]: ~3 nM
B9: F20-H2L4 (antibody, V domains shown)
VH: QVQLVQSGAEVKKPGSSVKVSCKASGYTFASYYLYWVRQAPGQGLEWIGEINPRSGGTNFNEKFKSRATVTVDASTSTAYMELSSLRSEDTAVYYCSRSGRLRGFYTMDYWGQGTLVTVSS
VL: DIQMTQSPSTLSASVGDRVTITCKAGENVGSYVSWYQQKPGKAPKLLIYGASNRYTGVPARFSGSGSATEFTLTISSLQPEDFATYYCGQTYRFLTFGQGTKVEVK
notes: also called humanized F20 mAb H2L4

Second part, the binder before the results:

B1: F17-H1L2 (antibody, V domains shown)
VH: EVQLVETGGGLIQPGGSLRLSCAASGFTFSDFGMHWIRQAPGKGLEWVAYMSYTPGTFHYADTVKDRFTISRDNSKNTLYLQMNSLRAEDTAVYYCARVHVGTVDYWGQGTLVTVSS
VL: EVVLTQSPATLSLSPGERATLSCRASQNINNNLHWFQQKPGQAPRLLIKYASQSISGIPARFSGSGSGTDFTLTISSLETEDFAVYFCQQSNSWPALTFGQGTKVEIK
notes: also called humanized F17 mAb H1L2
EC50 (read off the curve) [1]: ~0.2 nM | EC50 (read off the curve) [2]: ~0.9 nM

B2: F5-H1L2 (antibody, V domains shown)
VH: EVQLLESGGGLVQPGGSLRLSCAVSGFTFSNYGMSWVRQAPGKGLEWVATISSGGSYTYYPDSVKGRFTISRDNSKNTLYLQMNSLRAEDTAVYYCSTQGSSGYVGYWGQGTLVTVSS
VL: DIQMTQSPSSVSASVGDRVTITCKASQDITNFIGWYQHKPGKAPKLLISYTSILESGVPSRFSGSGSGTDYTLTISSLQPEDFATYYCLQYYNLWTFGGGTKVEIK
notes: also called humanized F5 mAb H1L2
EC50 (read off the curve) [3]: 0.2 to 0.3 nM | EC50 (read off the curve) [4]: ~0.9 nM

B3: F5-H2L2 (antibody, V domains shown)
VH: EVQLVESGGGLVQPGGSLRLSCAVSGFTFSNYGMSWVRQAPGKGLEWVATISSGGSYTYYPDSVKGRFTISRDNSKNTLYLQMNSLRAEDTAVYYCSTQGSSGYVGYWGQGTLVTVSS
VL: DIQMTQSPSSVSASVGDRVTITCKASQDITNFIGWYQHKPGKAPKLLISYTSILESGVPSRFSGSGSGTDYTLTISSLQPEDFATYYCLQYYNLWTFGGGTKVEIK
notes: also called humanized F5 mAb H2L2
EC50 (read off the curve) [3]: 0.2 to 0.3 nM | EC50 (read off the curve) [4]: ~0.9 nM

B4: F10-H1L1 (antibody, V domains shown)
VH: EVQLVQSGAEVKKPGSSVKVSCKASGYAFSSSWMNWVRQAPGQGLEWIGRIYPGDGYTHYNGMFKGRASLTADKSTSTGYMELSSLRSEDTAVFFCTRHGDFPYWYFDVWGRGTLVTVSP
VL: DIQMTQSPSTLSASVGDRVTITCRASENIDSYLAWYQQKPGRAPKLLVYAATNLAVGVPSRFSGSGSGTEYTLTISSLQSDDFATYYCQHHYSTPPTFGQGTKLEIK
notes: also called humanized F10 mAb H1L1
EC50 (read off the curve) [5]: ~3 nM | EC50 (read off the curve) [6]: 0.1 to 0.2 nM

B7: F20-H1L2 (antibody, V domains shown)
VH: QVQLVQSGAEVKKPGSSVKVSCKASGYTFASYYLYWVRQAPGQGLEWIGEINPRSGGTNFNEKFKSRATVTVDKSTSTAYMELSSLRSEDTAVYYCSRSGRLRGFYTMDYWGQGTLVTVSS
VL: DIVMTQSPDSLAVSLGERATINCKAGENVGSYVSWYQQKPGQSPKLLIYGASNRYTGVPDRFSGSGSATDFTLTISSLQAEDVAVYYCGQTYRFLTFGQGTKVEIK
notes: also called humanized F20 mAb H1L2
binding result [10]: binds | binding result [11]: binds

B8: F20-H1L3 (antibody, V domains shown)
VH: QVQLVQSGAEVKKPGSSVKVSCKASGYTFASYYLYWVRQAPGQGLEWIGEINPRSGGTNFNEKFKSRATVTVDKSTSTAYMELSSLRSEDTAVYYCSRSGRLRGFYTMDYWGQGTLVTVSS
VL: DIQMTQSPSTLSASVGDRVTITCKAGENVGSYVSWYQQKPGKAPKLLIYGASNRYTGVPARFSGSGSATEFTLTISSLQPDDFATYYCGQTYRFLTFGQGTKVEVK
notes: also called humanized F20 mAb H1L3
EC50 (read off the curve) [12]: ~0.2 nM
